Measured values as given in US20260061042A1, “POLYNUCLEOTIDE COMPOSITIONS AND USES THEREOF” (Pfizer Inc., priority 2024, published 2026).
Positions count from the first letter of the chain named.

B1: BMD576_PapG-DSF WT_DAF-GPI: monovalent PapG modRNA LNP; RNA construct SEQ ID NO: 65 (nucleic acid)
chain: AGGAGGACUGGUCGAACCUGCAUAGUGAUCAUAAGGUCAGCAUAGCCACCAUGGAGACCGACACCCUCCUGCUGUGGGUGCUGUUACUGUGGGUGCCCGGUAGCACCGGCUGGAACAACAUCGUGUUCUACAGCCUGGGCAACGUGAACAGCUACCAAGGCGGCAACGUGGUGAUCACACAGAGACCUCAGUUCAUCACAAGCUGGAGACCCGGCAUCGCCACCGUGACCUGGAAUCAGUGCAACGGCCCCGAGUUCGCCGACGGCAGCUGGGCCUACUACAGAGAGUACAUCGCCUGGGUGGUGUUCCCCAAGAAGGUGAUGACCAAGAACGGCUACCCCCUGUUCAUCGAGGUGCACAACAAGGGCAGCUGGAGCGAGGAGAACACCGGCGACAGCGACAGCUACUUCUUCCUGAAGGGCUACAAGUGGGACGAGAGAGCCUUCGACGCCGGCAACCUGUGUCAGAAGCCGGGGGAGACCACAAGACUUACCGAGAAGUUCAACGACAUCAUCUUCAAGGUGGCCCUGCCCGCCGACCUGCCCCUGGGCGACUACAGCGUGACCAUCCCCUACACAAGCGGCAUUCAGAGACACUUCGCUAGCUACCUGGGCGCUAGAUUCAAGAUCCCCUACAACGUGGCCAAGACCCUGCCUAGAGAGAACGAGAUGCUGUUCCUGUUCAAGAACAUCGGCGGCUGCAGACCUAGCGCUCAGAGCCUGGAGAUCAAGCACGGCGACCUGAGCAUCAACAGCGCCAACAACCACUACGCCGCUCAGACCCUGAGCGUGAGCUGCGACGUGCCCGCCAACAUCAGAUUCAUGCUGCUGAGAUCAACCACCCCCACCUACAGCCACGGCAAGAAGUUCAGCGUGGGCCUGGGCCACGGCUGGGACAGCAUCGUGAGCGUGAACGGCGUGGACACGGGCGAGACCACUAUGCGUUGGUACAAGGCCGGCACACAGAGCCUGACCAUCGGCAGCAGACUGUAUGGCGAAAGCUCCAAAAUCCAACCCGGCGUGCUGUCGGGGAGCGCCACCCUGCUGAUGAUACUGCCCGGAGGCAGCAGCGGCGGCGCCGACGUGCAGAUCAACAUCAGAGGCAACGUGUAUAUUCCGCCUAGCAGUGGUGGUGGGGGUAGCUCCGGCUCCGGAAGCAGCUGCGAGGGCAUCAGCCUGCUGGCUCAGAACACAAGCUGGCUGCUGCUGCUGCUGCUGAGCCUGAGCCUGCUGCAAGCCACCGACUUCAUGAGCCUGUGAUGAGCUCGCUUUCUUGCUGUCCAAUUUCUAUUAAAGGUUCCUUUGUUCCCUAAGUCCAACUACUAAACUGGGGGAUAUUAUGAAGGGCCUUGAGCAUCUGGAUUCUGCCUAAUAAAAAACAUUUAUUUUCAUUGCAAAAAAAAAAAAAAAAAAAAAAAAAAAAAAAAAAAAAAAAAAAAAAAAAAAAAAAAAAAAAAAAAAAAAAAAAAAAAAAAAA
modifications: modRNA in LNP
B2: BMD576_PapGLD WT_DAF-GPI: monovalent PapG modRNA LNP; RNA construct SEQ ID NO: 45 (nucleic acid)
chain: AGGAGGACUGGUCGAACCUGCAUAGUGAUCAUAAGGUCAGCAUAGCCACCAUGGAGACCGACACACUGCUGCUGUGGGUGCUUUUGUUGUGGGUGCCCGGUUCUACCGGAUGGAACAACAUCGUGUUCUACAGCCUGGGCAACGUGAACAGCUACCAAGGCGGCAACGUGGUGAUCACACAGAGACCUCAGUUCAUCACAAGCUGGAGACCCGGCAUCGCCACCGUGACCUGGAAUCAGUGCAACGGCCCCGAGUUCGCCGACGGCAGCUGGGCCUACUACAGAGAGUACAUCGCCUGGGUGGUGUUCCCCAAGAAGGUGAUGACCAAGAACGGCUACCCCCUGUUCAUCGAGGUGCACAACAAGGGCAGCUGGAGCGAGGAGAACACCGGCGACAGCGACAGCUACUUCUUCCUGAAGGGCUACAAGUGGGACGAGAGAGCCUUCGACGCCGGCAACCUGUGUCAGAAGCCCGGCGAGACCACAAGACUGACCGAGAAGUUCAACGACAUCAUCUUCAAGGUGGCCCUGCCCGCCGACCUGCCCCUGGGCGACUACAGCGUGACCAUCCCCUACACAAGCGGCAUUCAGAGACACUUCGCUAGCUACCUGGGCGCUAGAUUCAAGAUCCCCUACAACGUGGCCAAGACCCUGCCUAGAGAGAACGAGAUGCUGUUCCUGUUCAAGAACAUCGGCGGCAGUUCUGGUGGCGGUGGUUCAAGUGGUAGUGGCAGUUCAAGUGGGACAACACGACUGUUGAGCGGGCAUACGUGUUUUACGCUGACAGGUCUUCUGGGCACGCUGGUUACUAUGGGCUUGCUUACGUGAUGAGCUCGCUUUCUUGCUGUCCAAUUUCUAUUAAAGGUUCCUUUGUUCCCUAAGUCCAACUACUAAACUGGGGGAUAUUAUGAAGGGCCUUGAGCAUCUGGAUUCUGCCUAAUAAAAAACAUUUAUUUUCAUUGCAAAAAAAAAAAAAAAAAAAAAAAAAAAAAAAAAAAAAAAAAAAAAAAAAAAAAAAAAAAAAAAAAAAAAAAAAAAAAAAAAA
modifications: modRNA in LNP
B3: BMD576_PapGLD K172A_DAF-GPI: monovalent PapG modRNA LNP; RNA construct SEQ ID NO: 52 (nucleic acid)
chain: B2 chain with A624G, A625C, G626C
modifications: modRNA in LNP

Tested on: E. coli strain CFT073 expressing the fimbrial adhesin PapG
Test: PapG hemagglutination inhibition (HAI) assay on sera of mice immunized with PapG modRNA LNPs
Assay type: in vivo
Conditions: 1 μg, 50 μl IM; for Step Titer GMT (HAI): weeks 0, 4, bleed week 6, GMT of individual titers; for Step Titer Pool (HAI): weeks 0, 4, bleed week 6, serum pool
Text: Escherichia coli to the uroepithelium of human kidney. The PapG lectin binds to the globoside (GbO4) glycolipid, which is enriched in urinary tract tissue and consists of the tetrasacharide GalNAcβ1-3Galα1-4Galβ1-4Glc linked to ceramide. Here we present the use of a hemagglutination inhibition assay (HAI) to determine vaccine functional responses to protein subunit PapG or mRNA-expressed PapG antigens. In this assay the agglutination of human red blood cells (hRBCs) expressing GbO4 is caused by live E. coli CFT073 bacteria expressing PapG. The HAI assay measures the ability of PapG-elicited antibodies to prevent hRBC agglutination, exemplifying inhibition of the key bacterial adherence mechanism leading to clinical pyelonephritis. The assay was used to characterize the functional activity of PapG monoclonal antibodies (mAbs) raised against a PapG lectin domain subunit antigen. PapG HAI data from a mouse immunogenicity study are described that evaluated various 5 monovalent PapG modRNA LNPs and a PapG subunit comparator.
In this mouse study immunogenicity of different PapG mRNA constructs were evaluated. […]
iii. PapG Hemagglutination Inhibition Assay (HAI) 1. Preparation of Single Use Frozen E. coli CFT073 Banks Frozen bacterial stocks for use in the PapG HAI are stored at a concentration of ˜15 OD/mL. For stock preparation, take 6 ×100 μL of frozen parental strain CFT073 glycerol stock to seed six overnight cultures with ˜85 mL Luria's Broth (LB) each in 250 mL vented flasks. Flasks are shaken at 200 rpm and 37° C. overnight. On the same day, prepare 100 mL LB media with 30% glycerol and 0.4% sucrose by mixing […] 80% Glycerol with 0.8 mL 50% Sucrose in 64 mL LB and pre-chill at 4° C. After ˜16 h growth, determine the OD600 nm of each flask with the SpectraMax M5e plate reader by adding 100 μL culture to 900 μL LB (1:10 dilution). After reading the OD600, harvest cells by pelleting in a centrifuge at 4,000g, 4° C., for 30 minute. Determine the total OD of each of the six flasks, by multiplying the volume by OD/mL of each flask and divide by 15 OD to give the appropriate pellet resuspension volume. Discard supernatants and resuspend all pellets in the pre-chilled LB cryopreservant containing 30% glycerol and 0.4% sucrose, with a final volume as calculated above. Pool all resuspended pellets and mix gently, then aliquot into 1 mL/cryotube, and freeze at −70° C.
2. Preparing 10% hRBC Working Solution From Stock
Gently mix human red blood cells (hRBC) bottle (Rockland) by rocking ˜20×times, pipet out 10 mL of the hRBCs into a 15 ml conical tube. Centrifuge at 2,000 rpm(˜990×g) for 10 minutes and 4° C. Aspirate and discard the supernatant, then resuspend the pellet with 9 mL 4° C. PBS. The packed hRBCs in 15 mL conical tube should constitute roughly 1 mL of this total volume. Store these 10% hRBCs at 4° C. until use. […]
iv. PapG Hemagglutination Inhibition (HAI) Assay
The PapG hemagglutination inhibition (HAI) assay uses human red blood cells (hRBCs), which naturally express the PapG ligand GbO4 (globotetraosyl ceramide) on the cell surface, and the E. coli strain CFT073 expressing the fimbrial adhesin PapG. Upon mixing bacteria with hRBCs, […] cells remain suspended (presenting as a cloudy well), while no binding results in the red blood cells falling out of solution towards the center of the well (observed as pellet).
The total final well volume is 100 μL, with serum dilutions comprising 25 μL of this volume, strain CFT073 cells in […] volume, and hRBCs in a 50 μL volume. The assay plate is a V-bottom plate to which 25 μL 4° C. PBS is initially added to all wells. The positive control wells receive an additional 25 μL 4° C. PBS. The no-serum negative control consists of E. coli CFT073 cells plus hRBCs only (resulting agglutinated well appears cloudy). To accommodate pre-diluted sera transferred from the serum Master Dilution plate (MDP) an extra 5 μL 4° C. PBS is added to wells in Row A of the assay plate (columns 1 to 12). […]

Row | Molecule | Step Titer GMT (HAI) | Step Titer Pool (HAI)
1 | B1 | 89,753 | 81,000
2 | B2 | 94,822 | 81,000
3 | B3 | 98,165 | 81,000
